Assay results as given in the RNAGym collection of RNA variant scans (doi:10.7554/elife.80360).

B1: HDV Ribozyme (parent)
chain: GGCCGGCAUGGUCCCAGCCUCCUCGCUGGCGCCGGCUGGGCAACAUUCCGAGGGGACCGUCCCCUCGGUAAUGGCGAAUGGGACCCA

Variants of: B1
Assay: self-cleavage, relative activity (ratio to wild type); higher = more cleavage; co-transcriptional

Row | Variant | self-cleavage
1 | U20G U37A | 0
2 | U20G U79C | 0.0773
3 | U20G U79A | 0.175
4 | U20G U79G | 0.208
5 | U20C C57A | 0.0449
6 | U20C C57U | 0.306
7 | U20C G31A | 0.0415
8 | U20C C62U | 0.0875
9 | U20C A78C | 0.0449
10 | U20C A78G | 0.0755
11 | C21A A83G | 0.0519
12 | C21A A83C | 0.0378
13 | U20C A56C | 0.0615
14 | U20C A56G | 0.101
15 | U20C A56U | 0.266
16 | U20A G68A | 0.0504
17 | U20A G68U | 0
18 | C21A G68U | 0.0432
19 | C21A G68A | 0.0779
20 | C21A C62U | 0.0519
21 | C21A C62G | 0.138
22 | U20C C24U | 0.0475
23 | U20G C33A | 0.119
24 | U20G A56C | 0.196

Row | Variant | self-cleavage
25 | U20G A56G | 0.151
26 | U20G C32A | 0
27 | U20G C32U | 0.0519
28 | C21A C61U | 0.0963
29 | C21A C61A | 0.0511
30 | C21A G35C | 0.177
31 | C21A G35A | 0.0804
32 | U20C A43C | 0.178
33 | U20C A43U | 0.0378
34 | U20C A43G | 0.0978
35 | U20C U46C | 0
36 | U20C U46A | 0.317
37 | C21A C30U | 0.0519
38 | C21A C30G | 0.0652
39 | C21A C30A | 0.0373
40 | U20G C84A | 0.222
41 | U20G C84U | 0.185
42 | U20C C44G | 0.0692
43 | U20C C44U | 0
44 | U20G C85U | 0.0554
45 | U20G C85A | 0.277
46 | U20G C85G | 0.158
47 | U20G A87G | 0.282
48 | U20G A87C | 0.282

Row | Variant | self-cleavage
49 | U20C A45G | 0
50 | U20C A45C | 0
51 | C21A C66G | 0
52 | U20G G59A | 0.268
53 | U20C G76C | 0.0773
54 | U20C G52C | 0.244
55 | U20C G52A | 0.175
56 | U20G G28C | 0
57 | U20G G28U | 0.0831
58 | U20G G28A | 0.0536
59 | U20G U47C | 0.133
60 | U20G C61G | 0.0536
61 | U20G | 0.205
62 | U20C | 0.129
63 | U20G G53C | 0.262
64 | U20G C86A | 0.237
65 | U20G C86G | 0.287
66 | U20G U60A | 0
67 | U20G G80C | 0.0519
68 | U20C G34A | 0.0504
69 | C21A G81C | 0.0923
70 | U20G C21A | 0.142
71 | U20G C21G | 0
72 | U20C C32U | 0.0426

Row | Variant | self-cleavage
73 | U20C C32A | 0.185
74 | U20A G54C | 0.196
75 | U20A G54U | 0.0923
76 | U20A G82C | 0
77 | U20A G82U | 0.0875
78 | U20A G38U | 0.122
79 | U20A G38A | 0.0332
80 | U20G C75A | 0.0978
81 | U20G C75G | 0
82 | U20G A70C | 0.217
83 | C21A A70U | 0
84 | U20G G55C | 0.0978
85 | U20G G55A | 0.356
86 | C21A C84A | 0
87 | C21A G53C | 0.0639
88 | U20C G40C | 0.0396
89 | U20C G40A | 0.0941
90 | U20G C62G | 0.0755
91 | C21A C22G | 0.108
92 | C21A C22A | 0.0898
93 | U20A G59A | 0.0302
94 | U20A G59C | 0.0475
95 | U20A G59U | 0.222
96 | C21A A87C | 0.0742

Row | Variant | self-cleavage
97 | U20C G81A | 0
98 | U20C G81C | 0
99 | C21A A45U | 0.0923
100 | C21A C49G | 0.102
101 | C21A A51U | 0.0369
102 | C21A A51C | 0.175
103 | C21A A51G | 0.0326
104 | U20C C86G | 0.208
105 | C21A G82A | 0.0594
106 | U20C U60C | 0.0978
107 | U20C U60A | 0.115
108 | U20C G74A | 0.125
109 | U20G G29A | 0.161
110 | C21A A77G | 0.0678
111 | U20C G35C | 0
112 | U20C G35A | 0.101
113 | U20A G50U | 0
114 | C21A C32A | 0.17
115 | C21A C32U | 0.0978
116 | U20A U23G | 0
117 | U20A G81A | 0
118 | U20A G81U | 0.0346
119 | C21A C44G | 0.0852
120 | C21A C44A | 0.0604

Row | Variant | self-cleavage
121 | U20A G40C | 0.178
122 | U20G G38C | 0.0489
123 | U20G G38A | 0.0573
124 | U20C C61A | 0.166
125 | U20C C61G | 0.128
126 | U20C G82U | 0.0449
127 | U20C G82A | 0.0462
128 | U20A U37A | 0.0831
129 | U20A U37G | 0.277
130 | U20C G29C | 0.231
131 | U20C C33A | 0.0665
132 | U20C C33U | 0.0536
133 | U20A G74A | 0
134 | U20A G74U | 0.0437
135 | U20G C57U | 0.302
136 | U20G C57G | 0.208
137 | U20G C57A | 0.111
138 | U20C G50C | 0.312
139 | U20C G50U | 0.163
140 | C21A G40U | 0.134
141 | U20C C85U | 0.0475
142 | U20C C85A | 0.119
143 | C21A C26A | 0.0739
144 | C21A C26G | 0.266

Row | Variant | self-cleavage
145 | U20G G81A | 0.108
146 | U20G G81U | 0
147 | U20G A83U | 0.0554
148 | U20G U46G | 0
149 | U20G C44A | 0.262
150 | C21A G29U | 0
151 | U20C C63G | 0.104
152 | U20C C63U | 0.0898
153 | U20G A42G | 0.138
154 | U20G C48U | 0.237
155 | U20G C48G | 0.222
156 | U20G C48A | 0.0723
157 | C21A G73C | 0.0678
158 | U20G G76C | 0.35
159 | U20G G76A | 0.214
160 | U20A G76U | 0
161 | U20A G76A | 0.135
162 | U20C A51C | 0.287
163 | U20A G31U | 0.0978
164 | U20C G38A | 0
165 | U20C G25C | 0.227
166 | U20C G25U | 0.0415
167 | U20G C66U | 0.148
